Assays:
[1] = system: carotid artery photochemical injury-induced thrombosis; assay: Carotid artery photochemical injury-induced thrombosis model; format: in vivo, mouse; conditions: 95% confidence interval=0.01-0.16, p<0.0001
Protocol: The carotid artery photochemical injury-induced thrombosis model begins with anesthesia by intraperitoneal injection of sodium pentobarbital (87 mg/kg body weight). After slight tail warming (using warm water) rose bengal (10 mg/mL in PBS) is injected into the tail vein in a volume of 0.12 mL at a concentration of 50 mg/kg. Mice will then be secured in a supine position (with the head pointing towards the operator) and placed on a heating pad (rectal temperature will be monitored) under a dissecting microscope. Following a (2.5-3 cm) midline cervical incision and a small incision of the larynx to provide a tracheostoma, by blunt preparation the right common carotid artery is exposed and cleared of connective tissue. A surgical stitch is employed to fix the stemocleidomastoid muscle aside to the right and increase access area to the right carotid artery. Care must be taken to avoid excessive vessel manipulation during procedures. […] Flow will be measured during these 60 minutes and for further 60 minutes (max time elapse 120 minutes) or until occlusion occurs. […]
Mice will be placed on a heating pad, to avoid a drop of body temperature. Heart rate (probe measuring the blood flow will also measure the heart rate) will be monitored during the surgery. […]

[2] = system: human invasive ductal carcinoma and invasive lobular carcinoma sections; assay: Confocal immunofluorescence on human carcinoma cryosections; conditions: Cyanine 3 labelled antibody
Protocol: NI-206.82C2 was labelled with Cyanine 3 for fluorescent imaging (Cy3 conjugation kit: Innova Biosciences, 340-0030) and antibody labelling was validated using a spectophotometer. Cryosections from human invasive ductal carcinoma tissues (FIG. 9, A) and invasive lobular carcinoma (FIG. 9, B) were fixed for 5 minutes in ice cold acetone and allowed to dry for 10 minutes before washing in PBS. The sections were then incubated for 1 hr at room temperature in 5% BSA in PBS. The tissue sections were then incubated with Cyanine 3 prelabelled antibodies overnight at 4° C., and then washed three times in PBS before incubation with DAPI at 0.5 μg/mL. Sections were then washed three additional times in PBS and mounted in Lisbeth's mounting medium before imaging on a SP8 confocal microscope (Leica Microsystems).

rhFAP = target: T1, rhFAP (Homo sapiens, UniProt Q12884); assay: Mechanism of inhibition of rhuFAP-mediated PEP (Z-Gly-Pro-AMC) cleavage; format: biochemical; conditions: 0, 10, 100, 1000 nM antibody, 20-100 μM Z-Gly-Pro-AMC, Lineweaver-Burk plot
T1 construct: purchased Sino Biologicals 10464-H07H
T1 sequence (Q12884 26-760 limits assumed): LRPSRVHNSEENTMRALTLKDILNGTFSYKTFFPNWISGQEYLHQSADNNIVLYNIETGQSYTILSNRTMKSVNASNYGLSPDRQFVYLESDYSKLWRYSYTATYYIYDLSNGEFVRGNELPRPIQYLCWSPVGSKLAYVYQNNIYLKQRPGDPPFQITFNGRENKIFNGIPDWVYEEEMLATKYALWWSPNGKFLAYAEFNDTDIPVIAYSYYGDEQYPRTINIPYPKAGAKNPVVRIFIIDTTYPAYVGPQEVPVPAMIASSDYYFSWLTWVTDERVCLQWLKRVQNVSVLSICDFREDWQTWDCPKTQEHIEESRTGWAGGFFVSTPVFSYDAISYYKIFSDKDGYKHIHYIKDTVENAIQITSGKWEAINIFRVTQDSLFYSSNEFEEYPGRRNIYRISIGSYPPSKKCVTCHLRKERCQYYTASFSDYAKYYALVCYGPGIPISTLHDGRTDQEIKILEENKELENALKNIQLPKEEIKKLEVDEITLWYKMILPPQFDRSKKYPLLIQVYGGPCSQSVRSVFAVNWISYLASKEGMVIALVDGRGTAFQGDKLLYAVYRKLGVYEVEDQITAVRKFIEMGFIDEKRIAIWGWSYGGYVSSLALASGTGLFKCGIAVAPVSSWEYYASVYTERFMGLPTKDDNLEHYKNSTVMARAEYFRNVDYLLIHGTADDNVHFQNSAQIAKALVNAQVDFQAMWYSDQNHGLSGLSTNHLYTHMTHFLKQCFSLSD
Protocol: A black flat bottom standard 96-well ELISA plate was blocked for 1 hr at 37° C. using sterile blocking buffer: 5% bovine serum albumin (BSA) in phosphate buffered saline (PBS). 10 μL of recombinant human FAP solution: 0.4 nM recombinant human FAP (Sino Biologicals, 10464-H07H), in 225 mM Sodium phosphate buffer, pH 7.4) was added to each well. Then, 80 μL of NI-206.82C2 at the indicated concentrations in PBS were added to the wells incubated for 1 hr at 37° C. Then, 10 μL of fluorogenic substrate solution (Z-Gly-Pro-AMC in 40% methanol and 60% 25 […]) was added to each well. The fluorescence intensity was measured at 360 nm excitation and 460 nm emission every 3 min over a total reading time of 2 hr.

B1: NI-206.82C2: recombinant human memory B cell-derived monoclonal anti-FAP IgG1 antibody, variable regions in FIG. 1A, FAP inhibitory (antibody, V domains shown)
VH: QVQLQQSGPGLVKPSQTLSLTCAISGDSVSSNSVTWNWIRQSPSRGLEWLGRTYYRSKWYNDYAVSVKGRITINPDTSKNQFYLQLKSVTPEDAAVYYCARDSSILYGDYWGQGTLVTVSS
VL: QAVLTQPSSLSASPGASASLTCTLPSGINVGTYRIFWFQQKPGSPPQYLLSYKSDSDNHQGSGVPSRFSGSKDASANAGILLISGLQSEDEADYYCMIWHSSAWVFGGGTKLTVL
Log-rank hazard ratio, arterial occlusion versus 43A11 [1]: 0.04
binding to human invasive ductal carcinoma and invasive lobular carcinoma sections [2]: specifically binds
mechanism of inhibition of FAP-mediated PEP cleavage (rhFAP): non-competitive inhibitor

Source: US20170369592A1, “NOVEL ANTI-FIBROBLAST ACTIVATION PROTEIN (FAP) ANTIBODIES AND USES DERIVED THEREOF” (Mabimmune Diagnostics AG, priority 2015, published 2017)
